Results taken from US20200140543A1 (Memorial Sloan Kettering, published 2020).

Target: T1, Recombinant human A33 protein (human, UniProt Q99795 22-235, limits assumed)
T1 construct: Bought protein, immobilized on the sensor chip by amine coupling; also called human A33 antigen; A33 glycoprotein antigen
T1 sequence (looked up): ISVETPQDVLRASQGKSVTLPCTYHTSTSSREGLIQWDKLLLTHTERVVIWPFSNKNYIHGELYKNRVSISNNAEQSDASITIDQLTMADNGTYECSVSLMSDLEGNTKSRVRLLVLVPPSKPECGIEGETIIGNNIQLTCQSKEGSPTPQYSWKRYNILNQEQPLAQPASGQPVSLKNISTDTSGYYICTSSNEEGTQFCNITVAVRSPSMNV
Assay: SPR, Biacore T100; A33 immobilized by amine coupling, antibody as analyte, bivalent analyte model
Description: Binding affinity was measured by Biacore T100.
Biacore T100 Biosensor, CMS sensor chip, and related reagents were purchased from GE Healthcare. Recombinant human A33 protein was purchased from Novoprotein. A BSA-(Y)-DOTA-Bn conjugate was prepared as described (Cheal et al., supra). A33 and DOTA antigens were immobilized using the Amino Coupling kit (GE Healthcare). Purified bispecific antibodies and control antibodies were analyzed, and data were fit to a bivalent analyte model using the Biacore T100 evaluation software as described (Cheal et al., supra).

B1: huA33-IgG1 (monospecific humanized antibody A33) (antibody, V domains shown)
VH: EVQLVESGGGLVKPGGSLRLSCAASGFAFSTYDMSWVRQAPGKRLEWVATISSGGSYTYYLDSVKGRFTISRDNAKNSLYLQMNSLRAEDTAVYYCAPTTVVPFAYWGQGTLVTVSS
VL: DIQMTQSQSSLSTSVGDRVTITCKASQNVRTVVAWYQQKPGKSPKTLIYLASNRHTGVPSRFSGSGSGTEFTLTISNVQPEDFADYFCLQHWSYPLTFGSGTKLEIKR
Kd: 1.71 nM
koff: 0.00105 s⁻¹
kon: 614000 M⁻¹ s⁻¹

B2: huA33-C825 bispecific antibody (humanized A33 IgG1-murine C825 scFv) (bispecific antibody)
heavy: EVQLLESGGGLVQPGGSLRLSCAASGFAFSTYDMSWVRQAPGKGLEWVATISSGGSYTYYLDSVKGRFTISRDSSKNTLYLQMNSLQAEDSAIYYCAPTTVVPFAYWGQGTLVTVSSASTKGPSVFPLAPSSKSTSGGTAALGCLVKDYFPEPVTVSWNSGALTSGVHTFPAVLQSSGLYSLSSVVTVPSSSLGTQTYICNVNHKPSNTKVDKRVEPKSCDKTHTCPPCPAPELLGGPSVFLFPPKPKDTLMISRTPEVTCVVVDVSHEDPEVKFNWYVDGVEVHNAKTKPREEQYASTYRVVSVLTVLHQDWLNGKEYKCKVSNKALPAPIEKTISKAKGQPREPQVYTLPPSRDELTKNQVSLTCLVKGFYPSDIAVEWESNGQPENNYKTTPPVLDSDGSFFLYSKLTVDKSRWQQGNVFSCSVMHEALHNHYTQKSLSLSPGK
light: DIQMTQSPSSLSVSVGDRVTITCKASQNVRTVVAWYQQKPGLAPKTLIYLASNRHTGVPSRFSGSGSGTDFTFTISSLQPEDIATYFCQQHWSYPLTFGQGTKVEVKRTVAAPSVFIFPPSDEQLKSGTASVVCLLNNFYPREAKVQWKVDNALQSGNSQESVTEQDSKDSTYSLSSTLTLSKADYEKHKVYACEVTHQGLSSPVTKSFNRGECGGGGSGGGGSASHVKLQESGPGLVQPSQSLSLTCTVSGFSLTDYGVHWVRQSPGKGLEWLGVIWSGGGTAYNTALISRLNIYRDNSKNQVFLEMNSLQAEDTAMYYCARRGSYPYNYFDAWGCGTTVTVSSGGGGSGGGGSGGGGSQAVVIQESALTTPPGETVTLTCGSSTGAVTASNYANWVQEKPDHCFTGLIGGHNNRPPGVPARFSGSLIGDKAALTIAGTQTEDEAIYFCALWYSDHWVIGGGTRLTVLG
notes: IgG-scFv format: the anti-DOTA-Bn scFv C825 is linked to the carboxyl end of the huA33 light chain; also called anti-A33/anti-DOTA-Bn (metal) bispecific antibody
Kd: 63.5 nM
koff: 0.00581 s⁻¹
kon: 91500 M⁻¹ s⁻¹
